Laboratory results taken from the nanobody polyreactivity screen of Harvey et al. (2022).

Assay: yeast display, Sf9 membrane polyspecificity reagent, FACS + sequencing; frameworks hold sequencing errors
In short: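 Polyreactivity labels are assigned by the sorting gate from which each nanobody was recovered. The gates were low and high (top ~1%), set on anti-HA fluorescence for expression and streptavidin fluorescence for reagent binding. Before sorting, galactose-induced (36–48 hours) yeast display cells were stained for 1 hour at 4 °C with 10% biotinylated, detergent-solubilized Sf9 membrane reagent.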

Sequence | polyreactivity (PSR sort gate)
QVQLVESGGGLVQAGGSLRLSGAASGNIFDNYAMGWYRQAPGKERELVAAITWSGGSTYYADSVKGRFTISRDNAKNTVYLQMNSLKPEDTAVYFCNTDYNHVFAYDHWGQGTQVTVSS | low polyreactivity
QVQLVESGGGLVQAGGSLRISCAASGSTFGWYTMGWYRQAPGKERELVAAISQGGGRTRYADSVKGRFTISRDNAKNTVYLQMNSLKPEDTAVYYCAATYYHRPYISNYGYWGQGTQVTVSS | high polyreactivity
QVQLVESGGGLVQAGGSLRLSCAASGRIFSYYAMGWYRQAPRKERELVAAITWSGGSTYYADSVKGRFTISRDNAKNTVYLQMNSLKPEDTAVYYCAADRRRWLYYGYDYWGQGTQVTVSS | high polyreactivity
QVQLVESGGGLVQSGGSLRLSCAASGFIFGEYTMGWNRQAPGKEREFVAAISWSGGSTSYADSVKGRFTISRDNAKNTVYLQMNSLKPEDTAVYYCAARYGSDYDYWGQGTQVTVSS | low polyreactivity
QVQLVESGGGLVQAGGSLRLSCAASGRIFYYTTMGWSRQAPGKERELVAAISVSGGSTYYADSVKGRFTISRDKAKNTVYLQRNSLKPEDTAVYYCNAKDWYFYRYDYWGQGTQVTVSS | low polyreactivity
QVQLVESGGGLVQAGGSLRLSCAASGNIFAYNAMGWYRQAPGKERELVASIRYSGGSTYYADSVKGRFTISRDNAKNTVYLQMNSLKPEDTAVYYCAKRGYSSYRTYNYWGQGTQVTVSS | high polyreactivity
QVQLVESGGGLVQAGGSLRLSCAASGSIFPPYALGWYRQAPGKERELVAAIDWGGSSTYYADSVKGRFTISRDNAKYTVYLQMNSLKPEATAVYYCAAEVVHGYYLYEYWGQGTQVTVSS | high polyreactivity
QVQLVESGGGLVQAGGSLRLSCAASGRIFGPYAMGWYRQAPGKERELVASITRSGGRTYYADSVKGRFTISRDNAKNTVYLQMNSLKPEDSAVYYCAAGGFSKSYYYWGQGSQVTVSS | high polyreactivity
QVQLVESGGGLVQAGGSLRLSCAASGSTFYNYAMGWYRQAPGKERELVAAITSSGGSTYYADSVKGRFTISRDNAKNTVYLQMNSLKPEDTAVYYCAATRRDRRKSFTYRYDYWGQGTQVTVSS | high polyreactivity
QVQLVESGVGLVQAGGSLRLSCAASGSTFGGNAMGWYRQAPGKEREKVADITFSGGSTSYADSVKGRFTISRDNAKKTVYLQMNSLKPEDTAVYYCNRDYPEIIVAGLDYWGQGSQVTVSS | low polyreactivity
QVQLVESGGGLVQAGGSLRLRCAASGWYRQAAGKERELVAAITYSGGSTYYADSVKGRFTISRDNAKKTVYLQMNSLKPEDTAVYYCAAQPRVDYEFPYRYGYWGLGTQVTVSS | low polyreactivity
QVQLVESGGGLVQAGGSLRLSCAASGRTFGSNAMGWYRQAPGKERELVAVISRRAGSTYADSVKGRFTISRDNAKNTVYLQMNSLKPEDTAVYYCATRWLYHQYYYWGQGTQVTVSS | high polyreactivity
QVQLVESGGGLVQAGGSLRLSCAASGFIFVYYVMGWYRQAPGKERELVAAITQSGGSTYYADSVKGRFTISRDNAKNTVYLQMNSLKPEDTAVYYCAAYRRTTGGGYDYWGQGTQVTVSS | high polyreactivity
QVQLVESGGGLVQAGGSLRLSCAASGRIFSRYAMVWYRQAPGKERELVAAINKSGGSTYYADSVKGRFTISRDNAKNTVYLQMNSLKPEDTAVYYCNAVYYWYKGDYWGQGTQVTVSS | high polyreactivity
QVQLVESGGGLVQAGGSLRLSCAAMGWYRQAPGKERELVATITWSGGSTYYADSVKGRFTISRDNAKNTVYLQMNSLKPEDTAVYYCNARATLLSPANTIRGYDYWGQGTQVTVSS | low polyreactivity
QVQLVESGGGLVQAGGSLRLSCAASGFTFAGYVLGWYRKAPGKDRELVAAISNSGGRTYADSVKGRFTISRDNAKNTVYLQMNSLKPEDTAVYYCAKKPGGFSQASRVDYDYWGQGTQVTVSS | low polyreactivity

Sequence | polyreactivity (PSR sort gate)
QVQLVESGGGLVQAGGSLRLSCGASGRSSYVYAMGWYRQAPGKERELVAAITSSGGSTYYADSVKGRFTISRDNAKNTVYLQMNSLKPEDTAVYYCAAETYPVWGVAFYYWGQGTQVTVSS | high polyreactivity
QVQLVESGGGLVQAGGSLRLSCAASGNTFVFYAMGWYRQAPGKERELVAAIDTGGTTNYADSVKGRFTISRDNAKNTVYLQMNSLKPEDTAVYYCAKRRLYWSGQGWVRTYGYWGQGTQVTVSS | high polyreactivity
QVQLVESGGGLVQAGGSLRLSCAASGLTFYYYAMGWYRQAPGKERELVATISSGGGRTYADSVKGRFTISRDNAKNTVYLQMNSLKPEDTAVYYCAVRNTKSYWFGYWGQGTQVTVSS | high polyreactivity
QVQLVESGGGLVQAGGSLRLSCAACGSLFGYNAMGWYRQAPGKERELVAAISYSGGSTYYADSVKGRFTISRDNAKNTDFLQMNSLKPEETAVYYCNAYRRYKDEDYWGQGTQVTVSS | high polyreactivity
QVQLVESGGGLVQAGGSLRLSCAASGRIFYFNAMGWYRQAPGKERELVAAMSWTGGSTYYADSVKGRFTISRDTAKNTVYLQMNSLKPEDTAVYYCAADRALSISLYPIASFDYWGQGTQVTVSS | low polyreactivity
QVQLVESGGGVVQAGVSLRLSCAASGFTSHGYAKGWYRQAPGQERELVAAIDSVGSTYYADSVKGRFTISRDNSKNTVYLQMNSLKQEDTAVYYCAARRKRVSFYQEYDYWGQGTQVTVSS | low polyreactivity
QVQLEESAGGLVQAGGSLRLSCAASGSTFYLNAMGSYRQAPGKERELVAAITVSGGSTYYADSVKGRFTISRDNAKNTVYLQMNSLKPEDNAVYYCARELLSPTYQRWYYYWGQGSQVTVSS | low polyreactivity
QVQLVESGGGLVQAGGSLRLSCAASGSIFVPYAMGWYIQAPGKERELVAAISSRGGSTYYADSVKGRFTISRDNAKNTVYLQMNSLKPEDTAVYYCNTDISRNYYWALYGYWGQGTQVTVSS | low polyreactivity
QVQLVESGGGLVQAGGSLSLTCAASGSIFRYYAMGWYRQAPGKERELVADITSSGGSTYYADSVKGRFTISRDNAKNTDYLQMNSLKPEDTAVYYCAALYWFYVYPFTEYDYWGQGTQVTVSS | low polyreactivity
HVQLVESGGGLVQAGGSLRLSCAASGSIFAKNAMGWYREAPGKERELVAGIDFSGGSTYYADSVKGRFTISRDNAKNTVYLQMNSLKPEDTAVYYCAADWAYKYELDYWGQGTQVTVSS | low polyreactivity
QVQLVESGGGLVQAGGSLRISCAASGRTFYYYAMGWYRQAPGKEREFVARITSSGGSTSYADSVKGRFTISRDNAKNTVYLQMNSLKPEDTAVYYFNAVSTYTSDDYDYWGQGSQVTVSS | high polyreactivity
QVQLVESGGGLVQAGGSLRLSCAASGGTFLYYAMGWYRQAPGKETELVAAISRGGSTHYADSVKGRFTISRDNAKNTVYLQMNSLKPEDTAVYYCAVDGGEFSSYGYWGQGTQVTVSS | low polyreactivity
QVQLVESGGGLVQAGGSLRLSCADSVSIVGYYTMGWYRQAPWKARELVSGITSTGNTNYADSVKGRFTISRDNAKNTVYLHMNSLKPEHTAVYYCAADSESTWDFGWELEVGYDYWGQGTQVNVSS | low polyreactivity
QVQLVESGGGLVQAGGSLRLSCAASGSTFHRYTMGWYRQAPGKERELVAAISSGVNTDYADSVKGRFTISRDNAKNTVYLQMNSLKPEDTEVYYCNTSFGSPQVVRYEYWGQGTQVTVSS | low polyreactivity
QVQLVESGGGLVQAGGSHRLSCAASGFTFNKYAMGWYRQAPRKERELVAAISSSGGRTSYADSVKGRFTISRDNAKNTVYLQMNSVKPEDTAVYYCNKVSTADMGYWGQGTQVTVSS | high polyreactivity
QVQLVESGGGLVQAGGSLRLSCASSGRTFYLNAMGWYRQAPGKERELVAAISKRGGSTYYADSVKGRFTISRDNAKNTVYLQMNSLKPEDTAVYYCAKGFSFYSPRYDYWGQGTQVTVSS | high polyreactivity
